The values that follow come from publication PMC4107924 (IUCrJ, 2014).

This assay has as its target T1, MATβV1Δ16, MATβV1 lacking the first 16 amino acids (human, UniProt Q9NZL9 17-334).
T1 construct: MATβV1 (splicing variant 1 of mat2B), human, lacking the first 16 amino acids; Cloned via NcoI and XhoI sites like MATβV1; source: cloned in the HIS-parallel vector
As to the kind of experiment: SEC; MATα and MATβ incubated 1 h at 4°C in 50 mM HEPES pH 7.5, 10 mM MgCl2, 50 mM KCl, 300-500 µM NADP; Superdex 200 10/300 in 200 mM NaCl, 25 mM HEPES pH 7.5, 1 mM MgCl2, 5 mM KCl, 1 mM TCEP; also tested for the effect of NADP. The following applies: both partners purified. In general terms: Size exclusion chromatography separates by hydrodynamic size, large species first.

B1: MATα1, catalytic subunit of methionine adenosyltransferase (mat1A gene) (enzyme)
chain: not shown
notes: MATα1, catalytic subunit encoded by mat1A, human; construct provided by SGC Oxford; His tag cleaved with TEV protease; also called MAT(α1)4; source: E. coli BL21(DE3), purified (nickel resin, HiTrap Q ion exchange, Superdex 200 gel filtration)
As for B1, the binding result is “binds”.
